B1: CDC14A (parent)
chain: LWVQGDIFRSKLKNRPSSEGSINK

Variants of: B1
Experiment: protein stability index of a GFP-peptide fusion (GPS, HEK-293T) (PSI 1-6); higher = more stable
Settings: c terminus: a fixed tail appended
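Note: lentivirally expressed fusions sorted by FACS into six bins by GFP to DsRed ratio, PSI derived from sequencing read proportions per bin multiplied by bin number.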

Row | Variant | protein stability index
1 | LWVQGDCFRSKLKNRPSSEGSINK | 3.09
2 | LWVQGDKFRSKLKNRPSSEGSINK | 3.54
3 | LWVQGDEFRSKLKNRPSSEGSINK | 3.71
4 | LWVQGDMFRSKLKNRPSSEGSINK | 2.31
5 | LWVQGDYFRSKLKNRPSSEGSINK | 2.66
6 | LWVQGDLFRSKLKNRPSSEGSINK | 2.04
7 | LWVQGDAFRSKLKNRPSSEGSINK | 3.29
8 | LWVQGDPFRSKLKNRPSSEGSINK | 3.15
9 | LWVQGDFFRSKLKNRPSSEGSINK | 2.01
10 | LWVQGDTFRSKLKNRPSSEGSINK | 3.3
11 | LWVQGDRFRSKLKNRPSSEGSINK | 2.31
12 | LWVQGDHFRSKLKNRPSSEGSINK | 3.37
13 | LWVQGDVFRSKLKNRPSSEGSINK | 2.98
14 | LWVQGDDFRSKLKNRPSSEGSINK | 3.35
15 | LWVQGDQFRSKLKNRPSSEGSINK | 2.97
16 | LWVQGDNFRSKLKNRPSSEGSINK | 3.82
17 | LWVQGDGFRSKLKNRPSSEGSINK | 2.83
18 | LWVQGDSFRSKLKNRPSSEGSINK | 3.21
19 | LWVQGDWFRSKLKNRPSSEGSINK | 1.71
20 | LWPQGDIFRSKLKNRPSSEGSINK | 3.94
21 | LWTQGDIFRSKLKNRPSSEGSINK | 3.12
22 | LWKQGDIFRSKLKNRPSSEGSINK | 3.26
23 | LWLQGDIFRSKLKNRPSSEGSINK | 2.07
24 | LWSQGDIFRSKLKNRPSSEGSINK | 3.06

Row | Variant | protein stability index
25 | LWYQGDIFRSKLKNRPSSEGSINK | 2.89
26 | LWNQGDIFRSKLKNRPSSEGSINK | 2.71
27 | LWGQGDIFRSKLKNRPSSEGSINK | 3.18
28 | LWMQGDIFRSKLKNRPSSEGSINK | 2.73
29 | LWQQGDIFRSKLKNRPSSEGSINK | 3.32
30 | LWWQGDIFRSKLKNRPSSEGSINK | 2.55
31 | LWHQGDIFRSKLKNRPSSEGSINK | 1.99
32 | LWRQGDIFRSKLKNRPSSEGSINK | 3.34
33 | LWVQVDIFRSKLKNRPSSEGSINK | 1.53
34 | LWVQMDIFRSKLKNRPSSEGSINK | 1.75
35 | LWVQHDIFRSKLKNRPSSEGSINK | 2.52
36 | LWVQADIFRSKLKNRPSSEGSINK | 2.06
37 | LWVQNDIFRSKLKNRPSSEGSINK | 2.63
38 | LWVQRDIFRSKLKNRPSSEGSINK | 2.35
39 | LWVQEDIFRSKLKNRPSSEGSINK | 3.34
40 | LWVQQDIFRSKLKNRPSSEGSINK | 2.76
41 | LWVQCDIFRSKLKNRPSSEGSINK | 2.3
42 | LWVQLDIFRSKLKNRPSSEGSINK | 2.92
43 | LWVQDDIFRSKLKNRPSSEGSINK | 3.21
44 | LWVQPDIFRSKLKNRPSSEGSINK | 2.69
45 | LWVQYDIFRSKLKNRPSSEGSINK | 1.39
46 | LWVQIDIFRSKLKNRPSSEGSINK | 2.35
47 | LWVQFDIFRSKLKNRPSSEGSINK | 2.59
48 | LWVQWDIFRSKLKNRPSSEGSINK | 1.87

Row | Variant | protein stability index
49 | LWVQTDIFRSKLKNRPSSEGSINK | 2.29
50 | LWVQKDIFRSKLKNRPSSEGSINK | 2.3
51 | LWVQSDIFRSKLKNRPSSEGSINK | 2.52
52 | LWVQGDITRSKLKNRPSSEGSINK | 3.3
53 | LWVQGDIARSKLKNRPSSEGSINK | 3.43
54 | LWVQGDIQRSKLKNRPSSEGSINK | 3.78
55 | LWVQGDICRSKLKNRPSSEGSINK | 3.14
56 | LWVQGDIMRSKLKNRPSSEGSINK | 2.42
57 | LWVQGDISRSKLKNRPSSEGSINK | 3.34
58 | LWVQGDIGRSKLKNRPSSEGSINK | 3.01
59 | LWVQGDIYRSKLKNRPSSEGSINK | 3.25
60 | LWVQGDIWRSKLKNRPSSEGSINK | 2.51
61 | LWVQGDIPRSKLKNRPSSEGSINK | 4.1
62 | LWVQGDIIRSKLKNRPSSEGSINK | 2.62
63 | LWVQGDINRSKLKNRPSSEGSINK | 3.01
64 | LWVQGDIDRSKLKNRPSSEGSINK | 3.67
65 | LWVQGDIRRSKLKNRPSSEGSINK | 2.92
66 | LWVQGDILRSKLKNRPSSEGSINK | 2.75
67 | LWVQGDIHRSKLKNRPSSEGSINK | 2.97
68 | LWVQGDIERSKLKNRPSSEGSINK | 4.43
69 | LWVQGDIKRSKLKNRPSSEGSINK | 3.23
70 | LWVQGDIVRSKLKNRPSSEGSINK | 3.06
71 | LWVQGDIFRSKLFNRPSSEGSINK | 1.68
72 | LWVQGDIFRSKLENRPSSEGSINK | 2.53

Row | Variant | protein stability index
73 | LWVQGDIFRSKLCNRPSSEGSINK | 2.2
74 | LWVQGDIFRSKLDNRPSSEGSINK | 2.87
75 | LWVQGDIFRSKLHNRPSSEGSINK | 2.55
76 | LWVQGDIFRSKLANRPSSEGSINK | 2.38
77 | LWVQGDIFRSKLINRPSSEGSINK | 2.15
78 | LWVQGDIFRSKLGNRPSSEGSINK | 2.05
79 | LWVQGDIFRSILKNRPSSEGSINK | 1.66
80 | LWVQGDIFRSRLKNRPSSEGSINK | 2.72
81 | LWVQGDIFRSYLKNRPSSEGSINK | 1.93
82 | LWVQGDIFRSLLKNRPSSEGSINK | 2.23
83 | LWVQGDIFRSSLKNRPSSEGSINK | 2.99
84 | LWVQGDIFRSNLKNRPSSEGSINK | 3
85 | LWVQGDIFRSWLKNRPSSEGSINK | 2.04
86 | LWVQGDIFRSALKNRPSSEGSINK | 2.26
87 | LWVQGDIFRSVLKNRPSSEGSINK | 2.36
88 | LWVQGDIFRSHLKNRPSSEGSINK | 2.69
89 | LWVQGDIFRSFLKNRPSSEGSINK | 2.3
90 | LWVQGDIFRSGLKNRPSSEGSINK | 3.68
91 | LWVQGDIFRSELKNRPSSEGSINK | 2.63
92 | LWVQGDIFRSQLKNRPSSEGSINK | 2.33
93 | LWVQGDIFRSMLKNRPSSEGSINK | 2.49
94 | LWVQGDIFRSCLKNRPSSEGSINK | 2.22
